B1: TPR t1 (parent)
chain: GACCAAUCUGCCCUCAGAGCUCGAGAACAUCUUCGGAUGCAGAGGAGGCAGGCUUCGGUGGCGCGAUAGCGCCAACGUCCUCAACCUCCAAUGCAUCCCACCACAUGAUGAUGCCUGAAGAGCCUUGGUUUUUUG

In this series the parent is B1. Briefly: polymerase ribozyme fitness, log enrichment relative to wild type (log ratio); higher = more active; in vitro selection for triplet polymerase activity. Put shortly: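 Mutant libraries were PCR-built and transcribed for each subunit of a heterodimeric triplet polymerase ribozyme and selected for one round in triplicate at −7 °C, frozen, before gel excision of extended constructs and streptavidin-bead capture. Input and output libraries were Illumina-sequenced, keeping genotypes with ≥10 input reads and ≥1 read per output. Fitness is a logarithmic ratio of genotype to wild-type enrichment, in base 2, using inverse-variance-weighted replicate averages.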
For A37U U131A, the “polymerase ribozyme fitness (log ratio)” value is -0.895.

Turning to U38G U96A C101U, the “polymerase ribozyme fitness (log ratio)” value is -2.15.

As for U38A C49G G60U G61A U116C U125A, the “polymerase ribozyme fitness (log ratio)” value is -4.75.

As to G39A G63U G69U, the “polymerase ribozyme fitness (log ratio)” value is -1.34.

With A37U G113U G120A, the “polymerase ribozyme fitness (log ratio)” value is -2.83.

U38A G48U C49A U87A C115A: the “polymerase ribozyme fitness (log ratio)” value is -3.9.

As for G39U A46G U78A C89U A95U C97U, the “polymerase ribozyme fitness (log ratio)” value was -2.4.

With G39A G71U A83U, the “polymerase ribozyme fitness (log ratio)” value is -1.37.

For U38A C40U, the “polymerase ribozyme fitness (log ratio)” value is -1.9.

Regarding A37U G69C C72U C85U, the “polymerase ribozyme fitness (log ratio)” value was -1.89.

U38A: the “polymerase ribozyme fitness (log ratio)” value was -0.984.

As to U38C, the “polymerase ribozyme fitness (log ratio)” value was -0.501.

Consider U38G, for which the “polymerase ribozyme fitness (log ratio)” value was -0.73.

Turning to U38C G63U G77C U131G, the “polymerase ribozyme fitness (log ratio)” value is -3.41.

Regarding G39A C40U C72G, the “polymerase ribozyme fitness (log ratio)” value is -2.72.

Turning to U38G G58U G63C G113C G135C, the “polymerase ribozyme fitness (log ratio)” value was -4.03.

With G39C U78C, the “polymerase ribozyme fitness (log ratio)” value was -1.14.

On to G39A C85U, for which the “polymerase ribozyme fitness (log ratio)” value was -1.3.

For the variant G39U A119G, the “polymerase ribozyme fitness (log ratio)” value is 0.375.

As to G39U C70U G117C G128A, the “polymerase ribozyme fitness (log ratio)” value is -5.92.

Regarding G39U C72U, the “polymerase ribozyme fitness (log ratio)” value was -1.72.

In the case of G39A A46U C64U, the “polymerase ribozyme fitness (log ratio)” value was -2.95.

Regarding G39C G69A U112A, the “polymerase ribozyme fitness (log ratio)” value is -3.52.

Regarding G39A G61A C85U, the “polymerase ribozyme fitness (log ratio)” value was -0.757.

Turning to G39C A43U C85A U112A C115U U130C, the “polymerase ribozyme fitness (log ratio)” value was -4.22.

On to U38A C53G C88G G120A C123G, for which the “polymerase ribozyme fitness (log ratio)” value is -1.3.

For G39A A50U G63C, the “polymerase ribozyme fitness (log ratio)” value is -2.66.

Consider G39U C102A, for which the “polymerase ribozyme fitness (log ratio)” value is -3.45.

Consider G39C C76U U126G, for which the “polymerase ribozyme fitness (log ratio)” value is -2.72.

Turning to G39U C53U G61U C123A G135U, the “polymerase ribozyme fitness (log ratio)” value is -0.952.

In the case of U38G C89A, the “polymerase ribozyme fitness (log ratio)” value was -2.14.

As for U38G C76U, the “polymerase ribozyme fitness (log ratio)” value is -1.36.

Take A37U U81G: the “polymerase ribozyme fitness (log ratio)” value is -3.43.

In the case of G39C C79A, the “polymerase ribozyme fitness (log ratio)” value is -3.06.

Turning to U38A C102U A111G U112A U126G U129C, the “polymerase ribozyme fitness (log ratio)” value is -6.23.

Consider G39U C49A A100U U106A, for which the “polymerase ribozyme fitness (log ratio)” value is -1.51.

Turning to G39A G45A C53A C102U A111C, the “polymerase ribozyme fitness (log ratio)” value was -3.94.

U38C A43U C86A: the “polymerase ribozyme fitness (log ratio)” value is -2.82.

G39A A75U G110C: the “polymerase ribozyme fitness (log ratio)” value was -5.51.

Regarding U38C C53A G93C G122A C123U, the “polymerase ribozyme fitness (log ratio)” value was -2.19.

Turning to G39C C53G G107C A121U, the “polymerase ribozyme fitness (log ratio)” value is -4.92.

Consider G39A U116A U129C, for which the “polymerase ribozyme fitness (log ratio)” value is -3.92.

Consider U38G G47U C76U C85U U96C U130C, for which the “polymerase ribozyme fitness (log ratio)” value was -5.5.

G39A C70U: the “polymerase ribozyme fitness (log ratio)” value was -0.985.

Turning to G39U C53G U87A A90G, the “polymerase ribozyme fitness (log ratio)” value is -0.306.

Turning to U38A A83C U92C C124A, the “polymerase ribozyme fitness (log ratio)” value is -1.34.

For the variant U38A G60A C79U, the “polymerase ribozyme fitness (log ratio)” value is -1.22.

Turning to G39C C56G C72U, the “polymerase ribozyme fitness (log ratio)” value is -1.49.

Take G39C C70U U112G: the “polymerase ribozyme fitness (log ratio)” value was -2.08.

Take G39A C62A C72G: the “polymerase ribozyme fitness (log ratio)” value is -4.2.

As to G39U A91U U126G G128U, the “polymerase ribozyme fitness (log ratio)” value was -3.6.

Regarding G39C G48U A75U, the “polymerase ribozyme fitness (log ratio)” value is -1.28.

Regarding U38C G63A G77C U131G, the “polymerase ribozyme fitness (log ratio)” value was -2.97.

Regarding A37U U54C G60U, the “polymerase ribozyme fitness (log ratio)” value is 1.01.

G39U C76G: the “polymerase ribozyme fitness (log ratio)” value is -0.793.

In the case of G39U C76U, the “polymerase ribozyme fitness (log ratio)” value is -0.958.

As for G39U C64U A84C, the “polymerase ribozyme fitness (log ratio)” value was -0.386.

For the variant U38A U59G A83C, the “polymerase ribozyme fitness (log ratio)” value was -1.75.

G39C C115A: the “polymerase ribozyme fitness (log ratio)” value is -1.12.

Consider A37U U59A, for which the “polymerase ribozyme fitness (log ratio)” value was -0.609.

A37U U59C: the “polymerase ribozyme fitness (log ratio)” value is -0.107.

On to U38C G110U G135U, for which the “polymerase ribozyme fitness (log ratio)” value was -3.96.

As for U38G A46C C101U, the “polymerase ribozyme fitness (log ratio)” value was -2.55.

Consider A37U G117A, for which the “polymerase ribozyme fitness (log ratio)” value was -1.4.

U38C C101U: the “polymerase ribozyme fitness (log ratio)” value was -1.08.

On to G39C G63C C104A, for which the “polymerase ribozyme fitness (log ratio)” value was -3.07.

Regarding G39C G57A, the “polymerase ribozyme fitness (log ratio)” value is -1.33.

With U38G C80U C86U, the “polymerase ribozyme fitness (log ratio)” value was -1.86.

As to G39A A43U C114U, the “polymerase ribozyme fitness (log ratio)” value is -2.78.

For the variant U38G C62G C86A C124A, the “polymerase ribozyme fitness (log ratio)” value is -2.75.

Take G39A C40G G69U C101A: the “polymerase ribozyme fitness (log ratio)” value was -2.28.

Turning to G39U C62U C85A A90G A119U C123G U125G, the “polymerase ribozyme fitness (log ratio)” value was -1.09.

Regarding U38G A50G U81C G113A, the “polymerase ribozyme fitness (log ratio)” value was -1.89.

Take G39A G117C: the “polymerase ribozyme fitness (log ratio)” value was -4.05.

G39A G117U: the “polymerase ribozyme fitness (log ratio)” value is -2.58.

With G39A G117A, the “polymerase ribozyme fitness (log ratio)” value was -1.8.

G39A C102A: the “polymerase ribozyme fitness (log ratio)” value was -2.49.

Consider A37U G77U G93C, for which the “polymerase ribozyme fitness (log ratio)” value is -2.05.

Regarding G39C A41U C72U A74U G113U C114U A121G, the “polymerase ribozyme fitness (log ratio)” value is -1.73.

As for U38G G113U U125G, the “polymerase ribozyme fitness (log ratio)” value is -3.75.

Regarding G39U C73U C99U, the “polymerase ribozyme fitness (log ratio)” value is -4.75.

Turning to G39A G63C, the “polymerase ribozyme fitness (log ratio)” value is -1.48.

G39A G63U: the “polymerase ribozyme fitness (log ratio)” value is -2.24.

Take U38A G60U C62A C115G: the “polymerase ribozyme fitness (log ratio)” value is -6.12.

The values are drawn from the RNAGym collection of RNA variant scans (doi:10.1073/pnas.2313332121).
